# Laboratory results as given in the RNAGym collection of RNA variant scans (doi:10.1073/pnas.2313332121).
# This sample holds only a part of the variants without activity.
# B1: TPR 5TU (parent)
# chain: GGAUCUUCUCGAUCUAACAAAAAAGACAAAUCUGCCACAAAGCUUGAGAGCAUCUUCGGAUGCAGAGGCGGCAGCCUUCGGUGGCGCGAUAGCGCCAACGUUCUCAACUAUGACACGCAAAACGCGUGCUCCGUUGAAUGGAGUUUAUCAUG
# Variants of: B1
# Assay: polymerase ribozyme fitness, log enrichment relative to wild type (log ratio); higher = more active; in vitro selection for triplet polymerase activity
# Method in brief: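 To select mutant libraries of each subunit of a heterodimeric triplet polymerase ribozyme, built by PCR and transcribed, each was annealed with a biotinylated primer, partner subunit and triplets, then incubated frozen at −7 °C. Extended constructs were gel-excised, captured on streptavidin beads and amplified by RT-PCR, in one round carried out in triplicate. Illumina sequencing of input and output libraries kept genotypes with ≥10 input reads and ≥1 read per output. Fitness is the base-2 logarithm of genotype enrichment relative to wild-type enrichment, from inverse-variance-weighted replicate averages.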
row,Variant,polymerase ribozyme fitness (log ratio)
1,GGAUCUUCUCGAUCUAACAAAAAAGACAAAUCUGCCACAAAGCUUGAGAGCAUCUUCGCAUGCAGAGGCGGCAGCCUUCGGUGGCGCGAUAGCGCCAACGUUCUCAACUAGGACACGCAAAACGCGUGCUCCGUUGAAUGGAGUUUAUCAUG [G59C U111G],≤ -4.2
2,GGAUCUUCUCGAUCUAACAAAAAAGACAAAUCUGCCACAAAGCUUGAGAGCAUCUUCGCAUGCAGAGGCGGCAGCAUUCGGUGGGGCGAUAGCGCCAACGUUCUCAACUAUGACACGUAAAACGCGUGCUCCGUUGAAUGGAGUUUAUCAUG [G59C C76A C85G C118U],-2.89
3,GGAUCUUCUCGAUCUAACAAAAAAGACAAAUCUGCCACAAAGCUUGAGAGCAUCUUCGCAUGCAGAGGCGGCAGCCUUCGGUGGCGCGAUAGCGUCAACGUUCUCGACUAUGACAAGCAAAACGCGUGCUCCGUUGAAUGGAGUUUAUCAUG [G59C C95U A106G C116A],0.288
4,GGAUCUUCUCGAUCUAACAAAAAAGACAAAUCUGCCACAAAGCUUGAGAGCAUCUUCGCAUGCAGAGGCGGCAGCCUUCGGUGGCGCGAUAGCGCCAACGUUCUCAACUAUGACACGCAAAACGCGUGCUCCGUUGAAUGGAGUUUAACAUG [G59C U148A],-2.88
5,GGAUCUUCUCGAUCUAACAAAAAAGACAAAUCUGCCACAAAGCUUGAGAGCAUCUUCGCAUGCAGAGGCGGCAGCCUUCGGUGGCGCGAUAGCGCCAUCGUUCUCAACUAUGACACGCAAAACGCGUGCUCCGUUGAAUGGAGUUUAUCAUG [G59C A98U],0.166
6,GGAUCUUCUCGAUCUAACAAAAAAGACAAAUCUGCCACAAAGCUUGAGAGCAUCUUCGCAUGCAGAGGCGGCAGCCUUCGGUGGCGCGAUAGCGCCAACGUUCUCAACUAUGACACGCAAAACUCGUGCUCCGUUGAAUGGAGUUUAUCAUG [G59C G124U],-0.228
7,GGAUCUUCUCGAUCUAACAAAAAAGACAAAUCUGCCACAAAGCUUGAGAGCAUCUUCGCAUGCAGAGGCGGCAGCCUUCGGCGGCGCGAUAGCGCCAACGUUCUCAACUAUGACACGCAAAACGCGUGCUCCGUUGAAUGGAGUUUAUCAUG [G59C U82C],0.0118
8,GGAUCUUCUCGAUCUAACAAAAAAGACAAAUCUGCCACAAAGCUUGAGAGCAUCUUCGCAUGCAGAGGCGGCAGCCUUCGGUGGCGCGAUAGCGCCAACGUUCUCAACUAUGACACACAAAACGCGUGCUCCGUUGAAUGGAGUUUAUCAUG [G59C G117A],1.39
9,GGAUCUUCUCGAUCUAACAAAAAAGACAAAUCUGCCACAAAGCUUGAGAGCAUCUUCGCAUGCAGAGGCGGCAGCCUUCGGUGGCGUGAUAGCGCCAACGUUCUCAACGAUGACACGCAAAACGCGUGCUCCGUUGAAUGGAGUUUAUCAUG [G59C C87U U109G],-1.03
10,GGAUCUUCUCGAUCUAACAAAAAAGACAAAUCUGCCACAAAGCUUGAGAGCAUCUUCGCAUGCAGAGGCGGCAGCCUUCGGUGGCGCGAUAGCGCCUACGUUCUCGACUAUGACACGGAAAACACGUGCUCCGUUGAAUGGAGUGUAUCAUG [G59C A97U A106G C118G G124A U145G],-2.18
11,GGAUCUUCUCGAUCUAACAAAAAAGACAAAUCUGCCACAAAGCUUGAGAGCAUCUUCGCAUGCAGAGGCGUCAGCCUUCGGUGGCGCUAUAGCGCCAUCGUUCUCAACUAUGACAGGCAAAACUCGUGCUCCGUUGAAUGGAGUUUAUCAUG [G59C G71U G88U A98U C116G G124U],≤ -4.2
12,GGAUCUUCUCGAUCUAACAAAAAAGACAAAUCUGCCACAAAGCUUGAGAGCAUCUUCGCAUGCAGAGGCGGCAGCCUUCGGUGGCCCGAUAGCGCCAACGUUCUCAACUAUGACACGCAAAACGCGUGCUCCGUUGAAUGGAGUUUAUCAUG [G59C G86C],-3.39
13,GGAUCUUCUCGAUCUAACAAAAAAGACAAAUCUGCCACAAAGCUUGAGAGCAUCUUCGCAUGCAGAGGCGGCAGCCUUCGGUGGCGCGACAGCGCCAACGUUCUCAAGUAUGACACGCUAAACGCGUGCUCCGUUGAAUGGAGUUUAUCUUG [G59C U90C C108G A119U A150U],≤ -4.2
14,GGAUCUUCUCGAUCUAACAAAAAAGACAAAUCUGCCACAAAGCUUGAGAGCAUCUUCGCAUGCAGAGGCGGCAGCCUUCGGUGGCGCGGUAGCGCCAACGUUCUCAACUAUGACACGCAAAACGCGUGCUCCGUUGAACGGAGCUUAUCAUG [G59C A89G U139C U144C],-3.75
15,GGAUCUUCUCGAUCUAACAAAAAAGACAAAUCUGCCACAAAGCUUGAGAGCAUCUUCGCAUGAAGAGGCGGCAGCCUUCGGUGGCGCGAUAGCGCCAACGUUCUCAACUAUGACACGCAAAACGCAUGCUCCGUUGAAUGGAGUUUAUCAUG [G59C C63A G126A],-0.167
16,GGAUCUUCUCGAUCUAACAAAAAAGACAAAUCUGCCACAAAGCUUGAGAGCAUCUUCGCAUGCAGAGGCGGCAGCCUUCGGUGGCGCGAUAGCGCCAACGUUCUCAACUAUGACACGCAAAACGCGUGCUCCGUUGACUGGAGUUUAUCAUG [G59C A138C],-3.7
17,GGAUCUUCUCGAUCUAACAAAAAAGACAAAUCUGCCACAAAGCUUGAGAGCAUCUUCGCAUGCAGAGGCGGCAGCCUUCGUUGGCGCGAUAGCGUCAACGUUCUCAACUAUGACACGCAAAACGCGUGCUCCGUUGAAUGAAGUUUAUCAUG [G59C G81U C95U G141A],-3.32
18,GGAUCUUCUCGAUCUAACAAAAAAGACAAAUCUGCCACAAAGCUUGAGAGCAUCUUCGCAUGCAGAGGCGGCAGCCUUCGGUGGCGCGAUAGCGCCAACGUUCUCAACUAUGACACGCAAAACGCGUGCUCCGUUGAAAGGAGUUUAUCAUG [G59C U139A],≤ -4.2
19,GGAUCUUCUCGAUCUAACAAAAAAGACAAAUCUGCCACAAAGCUUGAGAGCAUCUUCGCAUGCAGAGGCGGCAGCCUUCGGUGGCGCGAUAGCGCCAACGUUCUCAACUAUGACACGCAAAACGCGUGCUCCGUUGAAUGUAGUUUAUCAUG [G59C G141U],-0.299

row,Variant,polymerase ribozyme fitness (log ratio)
1,GGAUCUUCUCGAUCUAACAAAAAAGACAAAUCUGCCACAAAGCUUGAGAGCAUCUUCGCAUGCAGAGGCGGCAGCCUUCGGUGUCGCGAUAGCGCCAACGUUCUCAACUAUGACACGCAAAACCCGUGCUCCGUUGAAUGGAGUUUAUCAUG [G59C G84U G124C],-2.97
2,GGAUCUUCUCGAUCUAACAAAAAAGACAAAUCUGCCACAAAGCUUGAGAGCAUCUUCGCAUGCAGAGGCGGCAGCCUUAGGUGGCGCGAUAGUGCCAACGUUCUCAACUAUGACACGCAAAACGCGUGCUCCGUUGAAUGGAGUUUAUCAUG [G59C C79A C93U],≤ -4.2
3,GGAUCUUCUCGAUCUAACAAAAAAGACAAAUCUGCCACAAAGCUUGAGAGCAUCUUCGCAUGCAGAGGCGGCAGCCUUCGGUGGCGCGAUAGCGCCAACGUGCUCAACUAUGACACGCAAAACGCGUGCUCCGUUGAAUGGAGUUUAUCAUG [G59C U102G],-2.05
4,GGAUCUUCUCGAUCUAACAAAAAAGACAAAUCUGCCACAAAGCUUGAGAGCAUCUUCGCAUGCACAGGCGGCAGCCUUCGGUGGCGCGAUAGCGCCAACGUUCUCAACUAUGACACGCAAAACGCGUGCUCCGUUUAAUGGAGUUUAUCAUG [G59C G65C G136U],≤ -4.2
5,GGAUCUUCUCGAUCUAACAAAAAAGACAAAUCUGCCACAAAGCUUGAGAGCAUCUUCGCAUGCAGAGGCGGCAGCCUUCGGUGGCGCGAUAGCGUCAACGUUCUCAACUAUGACACGCAAAACGCGUGCUCCGUUUAAUGGAGUUUAUCAUG [G59C C95U G136U],-2.05
6,GGAUCUUCUCGAUCUAACAAAAAAGACAAAUCUGCCACAAAGCUUGAGAGCAUCUUCGCAUGCAGAGGCGGCAGCCUUCGGUGGCGCGAUAGCGCCAACGUUCUCAACUAUGACACGCAAAACGCGUGCUCCGUUGAAUGGAGUUCAUCAUG [G59C U146C],0.716
7,GGAUCUUCUCGAUCUAACAAAAAAGACAAAUCUGCCACAAAGCUUGAGAGCAUCUUCGCAUGCAGAGGCGGCAGCCUUCGGUGGCGCGAUAGCGCCAACGUUCUCAACUAUGACACGCAAAACGCGUGCUCCGUUGAAUGGAGUUGAUCAUG [G59C U146G],-0.145
8,GGAUCUUCUCGAUCUAACAAAAAAGACAAAUCUGCCACAAAGCUUGAGAGCAUCUUCGAAUGCAGAGGCGGCAGCCUUCGGUGGCGCGAUAGCGCCAACGUUCUCAACUAUGACACGCAAAACGCGUGCUCCGUUGAAUGGAGCUUAUCAUG [G59A U144C],0.0653
9,GGAUCUUCUCGAUCUAACAAAAAAGACAAAUCUGCCACAAAGCUUGAGAGCAUCUUCGCAUGCAGAGGCGGCAGCCUUCGGUAGCGCGAUAGCGCCAACGUUCUCAACUAUGACACGCAAAACGAGUGCUCCGUUGAAUGGAGUUUAUCAUG [G59C G83A C125A],-1.12
10,GGAUCUUCUCGAUCUAACAAAAAAGACAAAUCUGCCACAAAGCUUGAGAGCAUCUUCGCAUGCAGAGGAGGCAGCCUUCGGUGGCGCGAUAGCGCCAACGUUCUCAACUAUGACACGCAAAACGCGUGCUCCGUUGAAUGGAGUUUAUCAUG [G59C C69A],-1.79
11,GGAUCUUCUCGAUCUAACAAAAAAGACAAAUCUGCCACAAAGCUUGAGAGCAUCUUCGCAUGCAGAGGCGGCAGCCUUCGGGGGCGCGAUAGCGCCAACGUUCUCAACUAUGACACGCAAAACGCGUGCUCCGUUGAAUGGACUUUAUCAUG [G59C U82G G143C],-2.29
12,GGAUCUUCUCGAUCUAACAAAAAAGACAAAUCUGCCACAAAGCUUGAGAGCAUCUUCGCAUGCAGAGGCGGCAGCCUUCGGUGGCGCGAUAGCGCUAACGUUCUCAACUAUGACACGCAAAACGCGUGCUCCGUUGAAUGGAGUUUAUCAUG [G59C C96U],0.681
13,GGAUCUUCUCGAUCUAACAAAAAAGACAAAUCUGCCACAAAGCUUGAGAGCAUCUUCGCAUGCAGAGGCGGCAGCCUUCGGUGGCGCGAUAGCGACAACGUUCUCAACUAUGACACGCAAAACGCGUGCUGCGUUUAAUGGAGUUUAUCAUG [G59C C95A C131G G136U],≤ -4.2
14,GGAUCUUCUCGAUCUAACAAAAAAGACAAAUCUGCCACAAAGCUUGAGAGCAUCUUCGCAUGCAGAGGCGGCAGCCUUCGGUGGAGCGAUAGCGUCAACGUUCUCAACUAUGACACGCAAAACGCGUGCUCCGUUGCAUGGAGUUUAUCAUG [G59C C85A C95U A137C],≤ -4.2
15,GGAUCUUCUCGAUCUAACAAAAAAGACAAAUCUGCCACAAAGCUUGAGAGCAUCUUCGCAUGCAGAGGCGGCAGCCUUCGGUGGCGCGAUAGUGCCAACGUUCUCAACUAUGACACGCAAAACCUGUGCUCCGUUGAAUGGAGUUUUUCAUG [G59C C93U G124C C125U A147U],-0.985
16,GGAUCUUCUCGAUCUAACAAAAAAGACAAAUCUGCCACAAAGCUUGAGAGCAUCUUCGCAUGCAGAGGCGGCAGCAUCCGGUGGCGAGAUAGCCCUAACAUUCUCAACUAUGACACGCAAAACGCGUGCUCCGUUGAAUGGAGAUUAUCAUG [G59C C76A U78C C87A G94C C96U G100A U144A],≤ -4.2
17,GGAUCUUCUCGAUCUAACAAAAAAGACAAAUCUGCCACAAAGCUUGAGAGCAUCUUCGCCUGCAGAGGCGGCAGCCUUCGGUGGCGCGAUAGCGCCAAUGUUCUCAACUAUGACACGCCAAACGCGUGCUCCGUUGAAUGGAGUUUAUCAUG [G59C A60C C99U A119C],≤ -4.2
18,GGAUCUUCUCGAUCUAACAAAAAAGACAAAUCUGCCACAAAGCUUGAGAGCAUCUUCGCAUGCAGAGGCGGCAGCCUUCGGUGGAGCGAUAGCGCCAACGUUCUCAACUAUGACACGCAAAACGCGUGCUCCGUUGAAUGGAGUUUAUCAUG [G59C C85A],-0.943
19,GGAUCUUCUCGAUCUAACAAAAAAGACAAAUCUGCCACAAAGCUUGAGAGCAUCUUCGCAUGCAGAGGCGGCAGCCUUCGGUGGCGCGAUAGCGCCAACGUUCUCAACUAUGACCCGCAAAACGCGUGCUCCGUUGAAUGGAGUUUAUCAUG [G59C A115C],-0.396
